Assay results reported in the supplement of paper PMC10567573.

B1: FUNDC2 (parent)
chain: YIKVDWQRVEKDMKKAKEQLKIRK
B2: KCNA1 (parent)
chain: LKASMRELGLLIFFLFIGVILFSS

Variants of: B1
Assay: protein stability index of a GFP-peptide fusion (GPS, HEK-293T) (PSI 1-6); higher = more stable
Conditions: c terminus: a fixed tail appended
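Note: lentivirally expressed fusions sorted by FACS into six bins by GFP to DsRed ratio, PSI derived from sequencing read proportions per bin multiplied by bin number.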

Variant	protein stability index
YIKVDWQRVEKDMKKAKEQLKICK [R23C]	1.57
YIAVDWQRVEKDMKKAKEQLKIRK [K3A]	2.13
YIKVDWQRVEKDMKKAKEQLKIRW [K24W]	1.69
YIKVDWQRVEKDMKKAKEMLKIRK [Q19M]	2.57
YIKVDWQRVEKDMKKAKEYLKIRK [Q19Y]	1.8
YIKVDWQRVEKDMKKAKEALKIRK [Q19A]	1.86
YIKVDGQRVEKDMKKAKEQLKIRK [W6G]	2.81
YIKVDVQRVEKDMKKAKEQLKIRK [W6V]	3.49
YIKVDWQRVEKDMKNAKEQLKIRK [K15N]	1.88
YIKVDWQRVEKDMKKAKEQLKWRK [I22W]	2.11
YIKVDWQMVEKDMKKAKEQLKIRK [R8M]	2.35
YIKVDWQRYEKDMKKAKEQLKIRK [V9Y]	1.67
YIKVDWQRVEKDMKKANEQLKIRK [K17N]	1.95
LIKVDWQRVEKDMKKAKEQLKIRK [Y1L]	3.22

Variants of: B2
Assay: as above
Conditions: c terminus: a fixed tail appended

Variant	protein stability index
LKASMRELCLLIFFLFIGVILFSS [G9C]	1.29
LKASMRELDLLIFFLFIGVILFSS [G9D]	3.82
LKASMRELILLIFFLFIGVILFSS [G9I]	2.18
LKASMRELGWLIFFLFIGVILFSS [L10W]	2.58
LKASMRELGALIFFLFIGVILFSS [L10A]	2.62
LKASMRELGRLIFFLFIGVILFSS [L10R]	2.83
LKASMRELGTLIFFLFIGVILFSS [L10T]	3.06
LKASMRELGHLIFFLFIGVILFSS [L10H]	3.23
LKASMRELGCLIFFLFIGVILFSS [L10C]	2.07
LKASMRELGKLIFFLFIGVILFSS [L10K]	4
LKASMRELGMLIFFLFIGVILFSS [L10M]	3.58
LKASMRELGLLIFFLFIGVILNSS [F22N]	3.37
LKASMRELGLLIFFLFIGVILDSS [F22D]	2.83
LKASPRELGLLIFFLFIGVILFSS [M5P]	3.22
LKASFRELGLLIFFLFIGVILFSS [M5F]	1.98
LKASNRELGLLIFFLFIGVILFSS [M5N]	2.51
TKASMRELGLLIFFLFIGVILFSS [L1T]	1.84
AKASMRELGLLIFFLFIGVILFSS [L1A]	2.05
FKASMRELGLLIFFLFIGVILFSS [L1F]	2.12
VKASMRELGLLIFFLFIGVILFSS [L1V]	1.88
LKASMRELGLLIFFLFIVVILFSS [G18V]	3.15
LKASMRELGLLIFFLFIYVILFSS [G18Y]	3.18
LKASMRELGLLIFFLFIIVILFSS [G18I]	4.5
LKASMRELGLLIFFLFICVILFSS [G18C]	3.63
LKASMRELGLLIFFLFINVILFSS [G18N]	3.02
LKASMGELGLLIFFLFIGVILFSS [R6G]	2.63
LKASMNELGLLIFFLFIGVILFSS [R6N]	2.85

Variant	protein stability index
LKASMLELGLLIFFLFIGVILFSS [R6L]	3.12
LKASMCELGLLIFFLFIGVILFSS [R6C]	3.31
LKASMRELGLDIFFLFIGVILFSS [L11D]	3.53
LKASMRELGLWIFFLFIGVILFSS [L11W]	2.73
LKASMRELGLMIFFLFIGVILFSS [L11M]	1.73
LKASMRELGLYIFFLFIGVILFSS [L11Y]	3.48
LKASMRELGLLIFFLFIGNILFSS [V19N]	2.33
LKASMRELGLLIFFLFIGGILFSS [V19G]	2.85
LKASMRALGLLIFFLFIGVILFSS [E7A]	2.13
LKASMRNLGLLIFFLFIGVILFSS [E7N]	1.55
LKASMRELGLLIFFLFIGVIWFSS [L21W]	2.35
LKASMRELGLLIFFLFIGVINFSS [L21N]	2.64
LKASMRELGLLIFFLFIGVIHFSS [L21H]	2.98
LKASMRELGLLIFFLFIGVILFDS [S23D]	2.75
LKASMRELGLLIFFLFIGVILFAS [S23A]	2.19
LKASMRELGLLIFFLFIGVILFLS [S23L]	2.19
LKASMRELGLLIFFLFIGVILFGS [S23G]	2.03
LKASMRELGLLIFFLFIGVILFYS [S23Y]	2.2
LKASMRELGLLIFFLFIGVILFVS [S23V]	2
LRASMRELGLLIFFLFIGVILFSS [K2R]	2.32
LAASMRELGLLIFFLFIGVILFSS [K2A]	3.41
LMASMRELGLLIFFLFIGVILFSS [K2M]	2.15
LWASMRELGLLIFFLFIGVILFSS [K2W]	2.4
LKASMRELGLLIFFSFIGVILFSS [L15S]	2.67
LKASMRELGLLIFFNFIGVILFSS [L15N]	3.33
LKASMRELGLLIFFPFIGVILFSS [L15P]	2.29
LKASMRELGLLIFFYFIGVILFSS [L15Y]	2.55

Variant	protein stability index
LKPSMRELGLLIFFLFIGVILFSS [A3P]	2.17
LKFSMRELGLLIFFLFIGVILFSS [A3F]	1.72
LKASMRELGLLRFFLFIGVILFSS [I12R]	4.06
LKASMRELGLLYFFLFIGVILFSS [I12Y]	3.01
LKASMRELGLLLFFLFIGVILFSS [I12L]	2.86
LKASMRELGLLCFFLFIGVILFSS [I12C]	2.52
LKASMRELGLLIFFLTIGVILFSS [F16T]	2.77
LKASMRELGLLIFFLFIGVKLFSS [I20K]	3.18
LKASMRELGLLIFFLFIGVALFSS [I20A]	3.3
LKASMRELGLLIFFLFIGVCLFSS [I20C]	2.75
LKASMRELGLLIFFLFIGVMLFSS [I20M]	3.52
LKAYMRELGLLIFFLFIGVILFSS [S4Y]	2.17
LKAHMRELGLLIFFLFIGVILFSS [S4H]	2.07
LKASMRELGLLIFCLFIGVILFSS [F14C]	1.95
LKASMRELGLLIFRLFIGVILFSS [F14R]	2.41
LKASMRELGLLIGFLFIGVILFSS [F13G]	2.98
LKASMRELGLLINFLFIGVILFSS [F13N]	3.41
LKASMRELGLLIFFLFEGVILFSS [I17E]	1.91
LKASMRELGLLIFFLFRGVILFSS [I17R]	2.71
LKASMRELGLLIFFLFHGVILFSS [I17H]	2.85
LKASMRELGLLIFFLFIGVILFSK [S24K]	3.45
LKASMRELGLLIFFLFIGVILFSM [S24M]	2.42
LKASMRELGLLIFFLFIGVILFSE [S24E]	2.02
LKASMRELGLLIFFLFIGVILFST [S24T]	2
LKASMRELGLLIFFLFIGVILFSD [S24D]	2
LKASMRELGLLIFFLFIGVILFSY [S24Y]	2.06
